Results on three molecules are retold here after patent US6436691B1, “Chemical compounds” (Zeneca Limited, priority 1995, dated 2002).

Changes are numbered by the printed parent chain. Numbers in names are those of the source.

Series [1] can be described thus: Activity against Hipp-Arg in crude E. coli periplasmic shockate relative to mature HCPB (Example 16). Format: biochemical. An excerpt: A number of other mutant HCPBs have been constructed in a similar manner to the methods described in Reference Examples 7 and 8, and Examples 12, 13, 14 and 15. In each case oligos were constructed to introduce specific changes in the gene sequence by methods similar to those described above. In some cases additional mutations were identified upon complete sequencing of the mutated gene, and these were presumably introduced during the PCR reactions. Mutants with enzyme activity against substrate analogues (see Example 18 below) have been identified, and examples of these are given in Table 4 below. […] This material is subsequently referred to as periplasmic shockate or shockate and is prepared by the following procedure.
1. A single colony was used to inoculate 75 ml of L-broth nutrient media containing 10 μg/ml tetracycline and arabinose to a final concentration of 0.01% (w/v). […]
The activity of [G251T,D253K]HCPB was measured using the assay conditions described in Example 17 but using either 50 μl of a neat or 1 in 10 or 1 in 100 dilution of [G251T,D253K]HCPB crude E.coli periplasmic shockate (shockate) sample in place of purified enzyme. […] The amount of Hippuric acid produced in 24 h was quantified by HPLC as described in Example 17 and the results are shown in Table 6 and are expressed as the percentage conversion of substrate into product in 24 h at 37° C.

In the case of `O=C(O)CCC(=O)Oc1ccc(N(CCCl)CCCl)cc1`, the melting point (in general, the temperature of the solid-liquid transition) is 98 to 100 °C.

B1: C288S: HCPB mutant with C288S (protein, UniProt P15086 111-417, looked up, variant C288S)
Carboxypeptidase B: ATGHSYEKYNKWETIEAWTQQVATENPALISRSVIGTTFEGRAIYLLKVGKAGQNKPAIFMDCGFHAREWISPAFCQWFVREAVRTYGREIQVTELLDKLDFYVLPVLNIDGYIYTWTKSRFWRKTRSTHTGSSCIGTDPNRNFDAGWCEIGASRNPCDETYCGPAAESEKETKALADFIRNKLSSIKAYLTIHSYSQMMIYPYSYAYKLGENNAELNALAKATVKELASLHGTKYTYGPGATTIYPAAGGSDDWAYDQGIRYSFTFELRDTGRYGFLLPESQIRATSEETFLAIKYVASYVLEHLY
With B1, the “Hipp-Arg, activity relative to mature HCPB” value in series [1] is “c (activity 75% of mature HCPB (described in Reference Examples 7 and 8))”.

B2: C288A: HCPB mutant with C288A (protein, UniProt P15086 111-417, looked up, variant C288A)
Carboxypeptidase B: B1 Carboxypeptidase B with S288A
B2: the “Hipp-Arg, activity relative to mature HCPB” value in series [1] was “d (activity 25% of mature HCPB (described in Reference Examples 7 and 8))”.
